Reference: PMC9922296, “Mechanistic insights into RNA surveillance by the canonical poly(A) polymerase Pla1 of the MTREC complex” (Nature Communications, 2023)
Values joined by “and” are separate entries in the source; they are usually repeats but may differ in a detail not shown here. Identical values can stand only once. One block for each binder: values may come before it. No end group written: not given here.

Tests used:
[1] = target: T1, Pla1RRM (C-terminal RRM domain of Pla1, residues 352-566) (S. pombe, UniProt Q10295 352-566); assay: ITC; control of the competition: Iss1 30-76 titrated into Pla1RRM pre-incubated with a 1.1-fold molar excess of Red1 288-345 W298A/F305A; 25 °C; 20 mM HEPES pH 7.5, 150 mM NaCl, 2 mM BME; settings: both partners purified
T1 construct: Pla1, canonical poly(A) polymerase, S. pombe, C-terminal RRM domain, residues 352-566; also called Pla1 RRM domain; Pla1 CTD; source: E. coli BL21 (DE3) Rosetta2, purified (His-Trap, TEV cleavage, Resource Q, Superdex 200); not shown: His6, N-terminal, cleaved
T1 sequence (looked up): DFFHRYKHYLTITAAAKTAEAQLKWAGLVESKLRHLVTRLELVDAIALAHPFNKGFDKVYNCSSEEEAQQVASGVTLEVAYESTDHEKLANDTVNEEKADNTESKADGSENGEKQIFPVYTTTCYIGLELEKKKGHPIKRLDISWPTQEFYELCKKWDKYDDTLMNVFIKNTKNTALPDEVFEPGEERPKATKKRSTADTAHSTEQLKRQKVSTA

[2] = target: T1, Pla1RRM (C-terminal RRM domain of Pla1, …); assay: ITC; Red1 or Iss1 construct in the syringe (400-500 µM) titrated into Pla1RRM (wild type or mutant) in the cell (40-50 µM); 25 °C; 20 mM HEPES pH 7.5, 150 mM NaCl, 2 mM BME; one-binding site model; each independent measurement listed; settings: both partners purified
[3] = target: T1, Pla1RRM (C-terminal RRM domain of Pla1, …); assay: NMR titration; 1.5-fold molar excess of unlabelled Pla1RRM added to 0.3 mM 15N-labelled GB1-tagged Red1 constructs; 1H,15N-HSQC; 293 K; sodium phosphate pH 6.5, 100 mM NaCl; settings: both partners purified
[4] = target: T2, Pla1_(EEQE): Pla1RRM with K559/R560/Q561/K562 changed to EEQE (S. pombe, UniProt Q10295 352-566, K559/R560/Q561/K562 to EEQE); assay: ITC
T2 sequence: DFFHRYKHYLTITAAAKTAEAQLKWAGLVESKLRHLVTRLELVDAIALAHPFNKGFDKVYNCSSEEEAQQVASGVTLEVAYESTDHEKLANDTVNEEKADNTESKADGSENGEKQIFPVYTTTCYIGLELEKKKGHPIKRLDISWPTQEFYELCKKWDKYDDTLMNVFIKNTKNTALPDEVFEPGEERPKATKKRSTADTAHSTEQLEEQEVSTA

[5] = target: T3, Pla1EEE: Pla1RRM with K544/K545/R546 changed to EEE (S. pombe, UniProt Q10295 352-566, K544/K545/R546 to EEE); assay: ITC
T3 sequence: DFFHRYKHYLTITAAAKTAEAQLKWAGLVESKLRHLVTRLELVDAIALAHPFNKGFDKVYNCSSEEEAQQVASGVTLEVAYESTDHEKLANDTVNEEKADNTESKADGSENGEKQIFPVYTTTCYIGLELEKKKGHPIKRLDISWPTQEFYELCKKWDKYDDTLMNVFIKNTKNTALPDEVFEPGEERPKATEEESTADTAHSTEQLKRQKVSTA

[6] = target: T4, Pla1RRM with the charge reversal mutation K368E (S. pombe, UniProt Q10295 352-566, K368E); assay: ITC
T4 sequence: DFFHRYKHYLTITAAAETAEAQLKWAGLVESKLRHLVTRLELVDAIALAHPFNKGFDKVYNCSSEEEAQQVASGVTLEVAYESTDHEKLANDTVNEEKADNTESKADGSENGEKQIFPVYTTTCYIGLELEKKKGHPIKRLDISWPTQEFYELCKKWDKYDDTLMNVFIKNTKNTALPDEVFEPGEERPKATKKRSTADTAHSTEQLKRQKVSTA

[7] = target: T5, C-terminal RRM domain of Pla1 (Pla1RRM, residues 352-566), purified (S. pombe, UniProt Q10295 352-566); assay: ITC; MicroCal PEAQ-ITC, 25 °C, 20 mM HEPES pH 7.5, 150 mM NaCl, 2 mM BME; 40-50 µM protein in the cell, 400-500 µM ligand in the syringe; one-binding site model; settings: both partners purified
T5 construct: canonical poly(A) polymerase Pla1, S. pombe, C-terminal RRM domain, residues 352-566; also called Pla1 CTD; source: E. coli BL21 (DE3) Rosetta2, purified (His-Trap, TEV cleavage, Resource Q, Superdex 200); not shown: His6, N-terminal, cleaved
T5 sequence (looked up): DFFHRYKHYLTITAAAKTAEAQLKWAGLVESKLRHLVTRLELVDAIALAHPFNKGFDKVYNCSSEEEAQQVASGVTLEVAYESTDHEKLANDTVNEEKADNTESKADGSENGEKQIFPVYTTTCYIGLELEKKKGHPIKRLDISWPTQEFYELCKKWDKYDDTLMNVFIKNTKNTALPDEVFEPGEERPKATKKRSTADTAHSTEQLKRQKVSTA

[8] = target: T6, Pla1RRM with the charge reversal mutation K368E (S. pombe, UniProt Q10295 352-566, K368E); assay: as above; settings: both partners purified
T6 construct: canonical poly(A) polymerase Pla1, S. pombe, RRM domain, residues 352-566 with K368E; source: E. coli BL21 (DE3) Rosetta2, purified; not shown: His6, N-terminal, cleaved
T6 sequence (looked up): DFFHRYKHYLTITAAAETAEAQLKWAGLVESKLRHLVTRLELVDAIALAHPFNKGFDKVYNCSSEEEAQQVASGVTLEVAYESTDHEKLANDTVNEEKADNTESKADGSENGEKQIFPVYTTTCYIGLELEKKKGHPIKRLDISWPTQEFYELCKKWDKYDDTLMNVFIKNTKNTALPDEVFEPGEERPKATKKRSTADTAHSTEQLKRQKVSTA

[9] = target: T7, Pla1EEE: Pla1RRM with K544/K545/R546 changed to EEE (S. pombe, UniProt Q10295 352-566, K544/K545/R546 to EEE); assay: as above; settings: both partners purified
T7 construct: canonical poly(A) polymerase Pla1, S. pombe, RRM domain, residues 352-566 with K544/K545/R546 to EEE; source: E. coli BL21 (DE3) Rosetta2, purified; not shown: His6, N-terminal, cleaved
T7 sequence (looked up): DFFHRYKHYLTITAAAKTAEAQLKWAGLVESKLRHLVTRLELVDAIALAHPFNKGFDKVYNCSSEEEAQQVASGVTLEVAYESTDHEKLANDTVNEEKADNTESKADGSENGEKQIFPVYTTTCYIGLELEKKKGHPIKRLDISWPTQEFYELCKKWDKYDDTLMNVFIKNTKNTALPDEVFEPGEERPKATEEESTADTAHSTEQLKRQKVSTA

[10] = target: T8, Pla1_(EEQE): Pla1RRM with K559/R560/Q561/K562 changed to EEQE (S. pombe, UniProt Q10295 352-566, K559/R560/Q561/K562 to EEQE); assay: as above; settings: both partners purified
T8 construct: canonical poly(A) polymerase Pla1, S. pombe, RRM domain, residues 352-566 with K559/R560/Q561/K562 to EEQE; source: E. coli BL21 (DE3) Rosetta2, purified; not shown: His6, N-terminal, cleaved
T8 sequence (looked up): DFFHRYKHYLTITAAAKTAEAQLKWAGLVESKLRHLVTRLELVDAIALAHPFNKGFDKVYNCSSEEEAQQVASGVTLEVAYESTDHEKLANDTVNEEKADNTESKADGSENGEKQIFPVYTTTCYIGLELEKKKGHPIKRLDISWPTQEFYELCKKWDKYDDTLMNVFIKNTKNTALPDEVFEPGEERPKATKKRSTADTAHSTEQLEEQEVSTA

[11] = target: T5, C-terminal RRM domain of Pla1 (Pla1RRM, …); assay: ITC; competition: Red1_(288-345) titrated into Pla1RRM pre-incubated with a 1.1-fold molar excess of Iss1_(30-76); 25 °C, 20 mM HEPES pH 7.5, 150 mM NaCl, 2 mM BME; settings: both partners purified
[12] = target: T1, Pla1RRM (C-terminal RRM domain of Pla1, …); assay: ITC; competition: Red1 288-345 titrated into Pla1RRM pre-incubated with a 1.1-fold molar excess of Iss1 30-76; 25 °C; 20 mM HEPES pH 7.5, 150 mM NaCl, 2 mM BME; settings: both partners purified
Pla1RRM K368E = target: T9, Pla1RRM K368E (S. pombe, UniProt Q10295 352-566, K368E); assay: ITC; Red1 or Iss1 construct in the syringe (400-500 µM) titrated into Pla1RRM (wild type or mutant) in the cell (40-50 µM); 25 °C; 20 mM HEPES pH 7.5, 150 mM NaCl, 2 mM BME; one-binding site model; each independent measurement listed; settings: both partners purified
T9 construct: Pla1, S. pombe, C-terminal RRM domain, residues 352-566; source: E. coli BL21 (DE3) Rosetta2, purified (His-Trap, TEV cleavage, Resource Q, Superdex 200); not shown: His6, N-terminal, cleaved
T9 sequence (looked up): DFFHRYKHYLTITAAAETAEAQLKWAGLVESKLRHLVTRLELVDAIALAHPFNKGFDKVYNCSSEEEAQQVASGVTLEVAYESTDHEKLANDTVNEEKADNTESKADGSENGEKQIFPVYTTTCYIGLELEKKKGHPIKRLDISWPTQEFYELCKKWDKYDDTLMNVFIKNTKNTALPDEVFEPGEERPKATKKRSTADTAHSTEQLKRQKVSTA

Pla1RRM EEQE = target: T10, Pla1RRM EEQE (S. pombe, UniProt Q10295 352-566, K559/R560/Q561/K562 to EEQE); assay: as above; settings: both partners purified
T10 construct: Pla1, S. pombe, C-terminal RRM domain, residues 352-566; also called Pla1_(EEQE); K559/R560/Q561/K562 to EEQE; source: E. coli BL21 (DE3) Rosetta2, purified (His-Trap, TEV cleavage, Resource Q, Superdex 200); not shown: His6, N-terminal, cleaved
T10 sequence (looked up): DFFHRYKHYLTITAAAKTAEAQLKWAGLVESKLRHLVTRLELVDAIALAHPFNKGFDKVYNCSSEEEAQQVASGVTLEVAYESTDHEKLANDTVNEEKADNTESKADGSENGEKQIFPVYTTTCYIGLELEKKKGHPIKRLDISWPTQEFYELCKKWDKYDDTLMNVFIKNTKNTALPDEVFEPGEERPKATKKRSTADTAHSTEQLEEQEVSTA

Pla1RRM EEE = target: T11, Pla1RRM EEE (S. pombe, UniProt Q10295 352-566, K544/K545/R546 to EEE); assay: as above; settings: both partners purified
T11 construct: Pla1, S. pombe, C-terminal RRM domain, residues 352-566; also called Pla1EEE; K544/K545/R546 to EEE; source: E. coli BL21 (DE3) Rosetta2, purified (His-Trap, TEV cleavage, Resource Q, Superdex 200); not shown: His6, N-terminal, cleaved
T11 sequence (looked up): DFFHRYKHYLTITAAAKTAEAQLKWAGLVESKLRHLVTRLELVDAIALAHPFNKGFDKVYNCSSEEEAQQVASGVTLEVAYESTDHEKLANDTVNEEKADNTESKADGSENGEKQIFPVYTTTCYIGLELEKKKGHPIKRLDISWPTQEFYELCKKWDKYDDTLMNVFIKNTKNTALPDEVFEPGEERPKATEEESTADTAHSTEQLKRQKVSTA

stoichiometry N [1]: 0.97 and 1 | Kd [2]: 2.11 µM and 2.94 µM | stoichiometry N [2]: 1
B1: Iss1 30-76 (domain or fragment, S. pombe)
chain: VSNAKSPEQASEESDDSDIEFIIETKPGERAEPLGGSIATLGSTRPS
notes: Iss1 (fission yeast orthologue of scFip1), S. pombe, residues 30-76; source: E. coli BL21 (DE3) Rosetta2, purified (His-Trap, TEV cleavage, second IMAC flow-through, Superdex 75); not shown: His-Thioredoxin, N-terminal, cleaved

binding result [3]: binds
B2: GB1-tagged Red1 288-322 (domain or fragment, S. pombe)
chain: ISLPLLKQDDWLSSSKPFGSSTPNVVIEFDSDDDG
modifications: not fully specified (N-terminus); also: 15N-labelled
notes: source: E. coli BL21 (DE3), 15N-labelled in M9 minimal medium, purified; not shown: GB1, N-terminal, kept; His6, C-terminal, kept

Kd [4]: 2.8 µM | Kd [5]: 9.8 µM | Kd [6]: 17.8 µM | Kd [7]: 1.4 µM | fold loss in affinity against wild-type Pla1RRM [8]: ~13 fold | fold loss in affinity against wild-type Pla1RRM [9]: ~7 fold | fold loss in affinity against wild-type Pla1RRM [10]: ~2 fold | KD into the pre-formed Pla1RRM-Iss1_(30-76) complex [11]: 11 µM
B3: Red1 residues 288-345 (Pla1 interaction region), purified (domain or fragment, S. pombe, UniProt Q9UTR8 288-345, looked up)
chain: ISLPLLKQDDWLSSSKPFGSSTPNVVIEFDSDDDGDDFSNSKIEQSNLEKPPSNSENG
notes: source: E. coli BL21 (DE3), purified (His-Trap, TEV cleavage, second IMAC, Superdex 75); not shown: GB1, N-terminal, cleaved; His6, C-terminal, kept

stoichiometry N [12]: 1.11 and 1.82 | Kd [2]: 1.56 µM and 1.15 µM and 1.37 µM | stoichiometry N [2]: 1.05 and 0.952 and 1.19 | Kd (Pla1RRM K368E): 15.3 µM and 20.3 µM | stoichiometry N (Pla1RRM K368E): 0.8 and 1 | Kd (Pla1RRM EEQE): 3.28 µM and 2.27 µM | stoichiometry N (Pla1RRM EEQE): 1.03 and 0.97 | Kd (Pla1RRM EEE): 9.43 µM and 9.98 µM | stoichiometry N (Pla1RRM EEE): 0.86 and 0.94
B4: Red1 288-345 (domain or fragment, S. pombe)
chain: ISLPLLKQDDWLSSSKPFGSSTPNVVIEFDSDDDGDDFSNSKIEQSNLEKPPSNSENG
notes: as for B3
